Publication PMC4201290

Columns and labels:
Assay in all cases: fluorescence polarization
[1] = tested on: WT1 ZnF2-4 (-KTS) (Homo sapiens), P19544-4; details: FP: 5 nM FAM-dsDNA, 300 mM NaCl (200 mM in Fig 4E), 20 mM Tris-HCl pH 7.5, 5% glycerol, 0.5 mM TCEP, 25 C, 10 min; for Kd: 300 mM NaCl
[2] = biological target: Egr1/Zif268 ZnF1-3 (Homo sapiens) (UniProt P18146); details: FP: 5 nM FAM-dsDNA, 300 mM NaCl (200 mM in Fig 4E), 20 mM Tris-HCl pH 7.5, 5% glycerol, 0.5 mM TCEP, 25 C, 10 min
[3] = biological target: WT1 ZnF2-4 +KTS isoform (Homo sapiens) (UniProt P19544); details: FP: 5 nM FAM-dsDNA, 300 mM NaCl (200 mM in Fig 4E), 20 mM Tris-HCl pH 7.5, 5% glycerol, 0.5 mM TCEP, 25 C, 10 min
WT1 ZnF2-4 +KTS isoform (Homo sapiens), sequence (P19544 350-440): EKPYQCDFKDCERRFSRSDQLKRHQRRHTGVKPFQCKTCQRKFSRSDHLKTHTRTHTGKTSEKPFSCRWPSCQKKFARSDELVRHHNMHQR

[4] = 5fC at C9 of strand 1, 5mC at C3 of strand 1 and C3, C9 of strand 2
[5] = 5hmC at C9 of strand 1, 5mC at C3 of strand 1 and C3, C9 of strand 2
[6] = 5hmC at C3 and C9 of strand 1, 5mC at C3 and C9 of strand 2
[7] = 5mC at C3 and C9 of strand 2 only
[8] = 5mC at C3 and C9 of both strands

WT1 ZnF2-4 (-KTS) (Homo sapiens), P19544-4, sequence (P19544 other isoform, or with tags, fused parts or gaps): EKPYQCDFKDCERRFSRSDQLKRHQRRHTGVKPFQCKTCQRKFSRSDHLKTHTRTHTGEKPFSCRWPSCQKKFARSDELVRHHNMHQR

## AGCGTGGGCGT / TACGCCCACGC [5caCx1]
[1]; 2-fold stronger than 5mC, 5caC at C9 of strand 1, 5mC at C3 of strand 1 and C3, C9 of strand 2
  Kd: 0.05 µM
[2]; 5caC at C9 of strand 1, 5mC at C3 of strand 1 and C3, C9 of strand 2
  Kd: > 12 µM

## AGCGTGGGCGT / TACGCCCACGC [5caCx2]
[1]; ~25-fold weaker than M/M, also printed as KD > 2.3 uM, 5caC at C3 and C9 of strand 1, 5mC at C3 and C9 of strand 2
  Kd: 2.3 µM

## AGCGTGGGCGT / TACGCCCACGC [5fCx1]
[1]; [4]
  binding signal (fold weaker than 5mC (M/M)): 14
[2]; [4]
  binding signal (fold weaker than 5mC (M/M)): 15

## AGCGTGGGCGT / TACGCCCACGC [5fCx2]
[1]; 5fC at C3 and C9 of strand 1, 5mC at C3 and C9 of strand 2
  binding signal (fold weaker than M/M): 75

## AGCGTGGGCGT / TACGCCCACGC [5hmCx1]
[1]; [5]
  binding signal (fold weaker than 5mC (M/M)): 4.5
[2]; [5]
  binding signal (fold weaker than 5mC (M/M)): 3.6

## AGCGTGGGCGT / TACGCCCACGC [5hmCx2]
[1]; [6]
  binding signal (fold weaker than M/M): 75
[2]; [6]
  binding signal (fold weaker than M/M): 24

## AGCGTGGGCGT / TACGCCCACGC [C/C]
[3]; none
  binding signal (fold weaker than -KTS isoform): 24
[1]; none
  binding signal (fold weaker than M/M): 1.8
[2]; none
  binding signal (fold weaker than M/M): 2.8

## AGCGTGGGCGT / TACGCCCACGC [C/M]
[3]; [7]
  binding signal (fold weaker than -KTS isoform): 24
[1]; [7]
  binding signal (fold weaker than M/M): 1.2
[2]; [7]
  binding signal (fold weaker than M/M): 2

## AGCGTGGGCGT / TACGCCCACGC [M/M]
[3]; 300 mM NaCl, 25-fold also printed (Fig 4C), 5mC at C3 and C9 of both strands
  binding signal (fold weaker than -KTS isoform): 24
[1]; [8]
  binding signal (fold stronger than C/C): 1.8
[2]; [8]
  binding signal (fold stronger than C/C): 2.8
